This note sets out measurements from article PMC4822561, “Structure of a quinolone-stabilized cleavage complex of topoisomerase IV from Klebsiella pneumoniae and comparison with a related Streptococcus pneumoniae complex” (Acta Crystallographica. Section D, Structural Biology, 2016).

To fix the notation:
B2: S. pneumoniae topoisomerase IV ParC55 (domain or fragment)
chain: MSNIQNMSLEDIMGERFGRYSKYIIQDRALPDIRDGLKPVQRRILYSMNKDSNTFDKSYRKSAKSVGNIMGNFHPHGDSSIYDAMVRMSQNWKNREILVEMHGNNGSMDGDPPAAMRYTEARLSEIAGYLLQDIEKKTVPFAWNFDDTEKEPTVLPAAFPNLLVNGSTGISAGYATDIPPHNLAEVIDAAVYMIDHPTAKIDKLMEFLPGPDFPTGAIIQGRDEIKKAYETGKGRVVVRSKTEIEKLKGGKEQIVITEIPYEINKANLVKKIDDVRVNNKVAGIAEVRDESDRDGLRIAIELKKDANTELVLNYLFKYTDLQINYNFNMVAIDNFTPRQVGIVPILSSYIAHRREVILARSRFDKEKAEKRLHIVEGLIRVISILDEVIALIRASENKADAKENLKVSYDFTEEQAEAIVTLQLYRLTNTDVVVLQEEEAELREKIAMLAAIIGDERTMYNLMKKELREVKKKFATPRLSSLEDTAKALE
notes: ParC breakage-reunion domain (ParC55), S. pneumoniae isolate 7785 (St George's Hospital); two residues between ParC and the His6 tag; also called ParC N-terminal domain; ParC subunit; source: E. coli BL21(λDE3) pLysS, pET-29a (C-terminal His6); purification protocol in the Supporting Information

In data set [1] the target is B2. Put plainly: crystal structure; S. pneumoniae ParC55:ParE30:18-mer E-site DNA 1:1:1.2 at 4 mg/ml, 2 mM levofloxacin, 10 mM MgCl2; capillary counter-diffusion, 304 K; 2.9 Å, space group P3(1)21. The settings on record: both partners purified.
Data set [2] deals with the molecule itself. Described as above.
Data set [3] concerns the molecule itself. The data set is described as follows: crystal structure; K. pneumoniae ParE-ParC fusion (4.5 mg/ml) co-crystallised with pre-cut 34-mer E-site DNA (1:1.2 protein:DNA), 2 mM levofloxacin, 10 mM MgCl2; vapour diffusion, 298 K; 3.35 Å, space group P2(1).

B1: S. pneumoniae topoisomerase IV ParE30 (domain or fragment)
chain: KNKKDKGLLSGKLTPAQSKNPAKNELYLVEGDSAGGSAKQGRDRKFQAILPLRGKVINTAKAKMADILKNEEINTMIYTIGAGVGADFSIEDANYDKIIIMTDADTDGAHIQTLLLTFFYRYMRPLVEAGHVYIALPPLYKMSKGKGKKEEVAYAWTDGELEELRKQFGKGATLQRYKGLGEMNADQLWETTMNPETRTLIRVTIEDLARAERRVNVLMGDKVEPRRKWIEDNVKFTLEEATVF
notes: ParE TOPRIM domain (ParE30), S. pneumoniae isolate 7785 (St George's Hospital); the limits fit the printed Glu474 and Glu475; also called ParE C-terminal domain; ParE TOPRIM domain; source: E. coli BL21(λDE3) pLysS, pET-19b (N-terminal His10); purification protocol in the Supporting Information
B1: in data set [1], the binding result was “binds”.
As for B2, the binding result in data set [2] is given as “binds”.

B3: K. pneumoniae topoisomerase IV ParC breakage-reunion domain (ParC55; residues 1–490) (domain or fragment, K. pneumoniae (strain ATCC 35657))
chain: MSDMAERLALHEFTENAYLNYSMYVIMDRALPFIGDGLKPVQRRIVYAMSELGLNASAKFKKSARTVGDVLGKYHPHGDSACYEAMVLMAQPFSYRYPLGDGQGNWGAPDDPKSFAAMRYTESRLSKYAELLLSELGQGTVDWVPNFDGTLQEPKMLPARLPNILLNGTTGIAVGMATDIPPHNLREVAKAAITLIEQPKTTLDELLDIVQGPDFPTEAEIITSRAEIRKIYQNGRGSVRMRAVWSKEDGAVVITALPHQVSGAKVLEQIAAQMRNKKLPMVDDLRDESDHENPTRLVIVPRSNRVDMEQVMNHLFATTDLEKSYRINLNMIGLDGRPAVKNLLEILSEWLVFRRDTVRRRLNHRLEKVLKRLHILEGLLVAFLNIDEVIEIIRTEDEPKPALMSRFGISETQAEAILELKLRHLAKLEEMKIRGEQSELEKERDQLQAILASERKMNNLLKKELQADADAFGDDRRSPLHEREEAKAMS
notes: ParC breakage-reunion domain (ParC55), K. pneumoniae strain ATCC 35657, residues 1-490; In the crystal this stretch was joined on one chain with ParE 390-631 (see m1: M-ParE(390-631)-EF-ParC(1-490)-His6); written alone for the pair rows; also called ParC NTD 1–490; ParC subunit; source: E. coli BL21(λDE3) pLysS, pET-29a; purification protocol in the Supporting Information
As for B3, the stoichiometry N (commonly a count of units in the complex or per binding partner) in data set [3] was determined as 2.
